Laboratory results: patent publication US20130078263A1

Molecular target: HLA-DR on human peripheral blood mononuclear cells (human)
Assay: cell-based or functional assay

B1: IMMU-114 (antibody, from a related filing, IgG4, V domains shown)
VH: QVQLQQSGSELKKPGASVKVSCKASGFTFTNYGMNWVKQAPGQGLKWMGWINTYTREPTYADDFKGRFAFSLDTSVSTAYLQISSLKADDTAVYFCARDITAVVPTGFDYWGQGSLVTVSS
VL: DIQLTQSPSSLSASVGDRVTITCRASENIYSNLAWYRQKPGKAPKLLVFAASNLADGVPSRFSGSGSGTDYTFTISSLQPEDIATYYCQHFWTTPWAFGGGTKLQIKR
frequency of CD3+ class II-DR+ cells, IMMU-114-treated MLR, representative result: 4%
frequency of CD3+ class II-DR+ cells, IMMU-114-treated resting PBMCs, representative result: 0.5%
frequency of CD11c+ class II-DR+ cells, IMMU-114-treated MLR, representative result: 2.3%
frequency of CD11c+ class II-DR+ cells, IMMU-114-treated resting PBMCs, representative result: 0.4%
frequency of CD14+ class II-DR+ cells, IMMU-114-treated MLR, representative result: 2.2%
frequency of CD14+ class II-DR+ cells, IMMU-114-treated resting PBMCs, representative result: 0.5%
reduction of live mDC1 in human PBMCs after 3 days with 5 µg/ml antibody (flow cytometry): 59.2%
reduction of live mDC2 in human PBMCs after 3 days with 5 µg/ml antibody (flow cytometry): 85%
reduction of pDCs in human PBMCs (flow cytometry): 50%
